Source: publication PMC6988089

Legend:
[1] = target: TAMRA-labeled benzylated H3K9 peptide; experiment: fluorescence polarisation
[2] = target: TAMRA-labeled H3K9me3 peptide; experiment: fluorescence polarisation

| Kd [1] [µM] | Kd [2] [µM] | Kd (H3K9me2 peptide) [µM] | Substance |
| --- | --- | --- | --- |
| 18.5 |  |  | CBX1 chromodomain F50A (from UniProt P83916 20-73) (domain or fragment) |
| 49 | > 1000 |  | CBX3-F44G mutant (from UniProt Q13185 1-183) (natural protein) |
| 5.5 | 80 | > 300 | Y26F/F50G-CBX1 chromodomain (from UniProt P83916 22-73) (domain or fragment) |
| > 1000 |  |  | wild-type CBX3 (from UniProt Q13185 1-183) (natural protein) |
